# Measured values taken from publication PMC3202462.
# What was measured:
# GST-α1 T375E (mouse) = GST-α1 T375E (mouse) (UniProt P62812); assay: far-Western, overlay or dot blot
# GST-α1 T375D (mouse) = GST-α1 T375D (mouse) (UniProt P62812); assay: far-Western, overlay or dot blot
# GST-α1 T375A (mouse) = GST-α1 T375A (mouse) (UniProt P62812); assay: far-Western, overlay or dot blot
# [1] = molecular target: GST fusion of the intracellular domain of the GABAAR α5 subunit; assay: far-Western, overlay or dot blot
# [2] = molecular target: GST fusion of the intracellular loop of the GABAAR α2 subunit; assay: far-Western, overlay or dot blot
# [3] = molecular target: E-domain of gephyrin (residues 309-750, P1 variant); assay: ITC
gephyrin binding normalised to GST-α1 (100%) (GST-α1 T375E (mouse)),gephyrin binding normalised to GST-α1 (100%) (GST-α1 T375D (mouse)),"gephyrin binding, % of control (GST-α1 T375A (mouse))","gephyrin binding, % of control [1]","gephyrin binding, % of GST-α1 [2]",Kd [3],stoichiometry N [3],dH [3],Substance
62.5%,68.9%,109 % of control,12.9 % of control,43.7 % of GST-α1,–,–,–,"35S-methionine-labelled gephyrin, P1 isoform (natural protein)"
–,–,–,–,–,17 µM,0.62,–,"6-His-tagged GABAAR α1 cytoplasmic loop (M3-M4), wild type (domain or fragment)"
–,–,–,–,–,183 µM,0.69,–,6-His-tagged GABAAR α1 T375E cytoplasmic loop (domain or fragment)
–,–,–,–,–,36 µM,0.64,-15 kcal/mol,6-His-tagged GABAAR α1 T375A cytoplasmic loop (domain or fragment)
